Assay in all cases: SPR (Biacore T100), antibody captured on protein A chip, receptor injected as analyte
In one assay the target is T1, FcγRIIIa-F158 (UniProt P08637 17-208, limits assumed).
T1 construct: also called FcγRIIIa-F158 allele

Another assay addresses T2, FcγRIIIa-V158 (UniProt P08637 17-208, limits assumed).
T2 construct: It names the V158 allele but states no substitution against an entry; also called FcγRIIIa-V158 allele

The next assay addresses T3, FcγRIIb (UniProt P31994 46-217, limits assumed).
T3 construct: also called FcγIIb receptor
T3 sequence (looked up): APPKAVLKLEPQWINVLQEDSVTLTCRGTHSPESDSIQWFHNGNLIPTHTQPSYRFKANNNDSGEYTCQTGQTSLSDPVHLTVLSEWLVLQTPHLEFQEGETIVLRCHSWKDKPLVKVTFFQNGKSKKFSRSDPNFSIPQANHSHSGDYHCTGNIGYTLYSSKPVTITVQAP

T2 sequence (P08637 17-208 F176V limits assumed): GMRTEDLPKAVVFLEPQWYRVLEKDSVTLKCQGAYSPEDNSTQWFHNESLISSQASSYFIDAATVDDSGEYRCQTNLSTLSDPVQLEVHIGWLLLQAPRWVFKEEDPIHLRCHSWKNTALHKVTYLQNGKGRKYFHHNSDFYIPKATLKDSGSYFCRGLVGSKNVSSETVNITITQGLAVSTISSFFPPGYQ
T1 sequence (P08637 17-208 limits assumed): as the sequence (P08637 17-208 F176V limits assumed) above, with V160F counted along it

B1: commercial rituximab (rituxan, Genentech Inc.) (antibody)
chain 1: not shown
chain 2: QIVLSQSPAILSASPGEKVTMTCRASSSVSYIHWFQQKPGSSPKPWIYATNLASGVPVRFSGSGSGTSYSLTISRVEAEDAATYYCQQWTSNPPTFGGGTKLEIKRTVAAPSVFIFPPSDEQLKSGTASVVCLLNNFYPREAKVQWKVDNALQSGNSQESVTEQDSKDSTYSLSSTLTLSKADYEKHKVYACEVTHQGLSSPVTKSFNRGEC
One may read the Kd as the constant that tells how readily two partners part at equilibrium. Regarding B1, the Kd with FcγRIIIa-F158 was determined as 1040 nM; in the assay with FcγRIIIa-V158 it was 252 nM; in the assay with FcγRIIb, 2000 nM.

The record behind these values is patent publication US20150087814A1 (UNIVERSITY OF MARYLAND BALTIMORE, published 2015).
